Experiments:
Z-R-R-MCA = target: T1, Z-R-R-MCA
T1 sequence (peptide, N-terminal Z; C-terminal methylcoumarinamide (MCA)): RR

Boc-L-R-R-MCA = target: T2, Boc-L-R-R-MCA
T2 sequence (peptide, N-terminal Boc; C-terminal methylcoumarinamide (MCA)): LRR

[1] = target: T3, vasoactive intestinal peptide (VIP); experiment: binding studies under conditions that did not permit VIP hydrolysis (high ionic strength)
T3 sequence (peptide, C-terminal amide (--CO--NH2)): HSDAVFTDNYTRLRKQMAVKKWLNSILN

[2] = target: T3, vasoactive intestinal peptide (VIP)

bovine pancreatic trypsin (from UniProt P00760) (enzyme)
fluorescence of the leaving group methylcoumarinamide (Z-R-R-MCA): 179 units | fluorescence of the leaving group methylcoumarinamide (Boc-L-R-R-MCA): 263 units | fluorescence of the leaving group methylcoumarinamide (P-F-R-MCA): 194 units

B1: monoclonal antibody c23.5 (IgG2a, kappa) (antibody, V domains shown)
VH: EVQLQESGGGLVKPGGSLKLSCAASGFTFSIYGMSWFRQTPEKRLEWVATISGGDTYTYYPDSVKGRFTISRDNAKNNLFLQMSSLRSEDTALYFCGRGIAYWGQGTLVTVSA
VL: DIVLTQSPASQSASLGESVTITCLASQTIGTWLPWYQQKLGKSPQLLIYAATSLADGVPSRFSGSGSATKFSFKISSLQAEDFVSYNCQHLYSTPLTFGGGTKL
fluorescence of the leaving group methylcoumarinamide (Z-R-R-MCA): < 1 unit | fluorescence of the leaving group methylcoumarinamide (Boc-L-R-R-MCA): < 1 unit | Kd [1]: 3.4 nM | Km [2]: 2 nM | kcat [2]: 1.33e-06 s⁻¹

Reference: patent US5318897
